Measured values: patent publication US20180237511A1 (Sanofi, published 2018)
Where two headings read alike, the source gives them in different places.

T1: human laminin G-like 4 and 5 domains of laminin-2 (hLG-4/5), soluble (human, UniProt P24043 2729-3122, biotinylated in the ELISA of Example 6)
T1 construct: range 2729-3122; also called human LG-4/5; hLG4/LG5; not shown: Avi tag and HPC4 tag left after TEV cleavage of the N-terminal mIgG2a fusion partner
T1 sequence (looked up): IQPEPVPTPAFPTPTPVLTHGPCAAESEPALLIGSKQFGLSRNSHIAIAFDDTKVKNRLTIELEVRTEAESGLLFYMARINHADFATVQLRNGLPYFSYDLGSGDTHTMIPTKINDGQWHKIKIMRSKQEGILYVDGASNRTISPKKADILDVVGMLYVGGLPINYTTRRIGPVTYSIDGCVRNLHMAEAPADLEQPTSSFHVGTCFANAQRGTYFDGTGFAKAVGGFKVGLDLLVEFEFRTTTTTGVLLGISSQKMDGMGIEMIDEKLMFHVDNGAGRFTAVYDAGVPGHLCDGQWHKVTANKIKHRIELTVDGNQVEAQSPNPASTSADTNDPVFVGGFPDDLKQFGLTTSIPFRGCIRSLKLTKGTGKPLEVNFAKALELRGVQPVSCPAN

T2: murine laminin G-like 4 and 5 domains of laminin-2 (mLG-4/5), soluble (mouse, UniProt Q60675 2725-3118)
T2 construct: range 2725-3118; also called murine LG-4/5; not shown: Avi tag and HPC4 tag left after TEV cleavage of the N-terminal mIgG2a fusion partner
T2 sequence (looked up): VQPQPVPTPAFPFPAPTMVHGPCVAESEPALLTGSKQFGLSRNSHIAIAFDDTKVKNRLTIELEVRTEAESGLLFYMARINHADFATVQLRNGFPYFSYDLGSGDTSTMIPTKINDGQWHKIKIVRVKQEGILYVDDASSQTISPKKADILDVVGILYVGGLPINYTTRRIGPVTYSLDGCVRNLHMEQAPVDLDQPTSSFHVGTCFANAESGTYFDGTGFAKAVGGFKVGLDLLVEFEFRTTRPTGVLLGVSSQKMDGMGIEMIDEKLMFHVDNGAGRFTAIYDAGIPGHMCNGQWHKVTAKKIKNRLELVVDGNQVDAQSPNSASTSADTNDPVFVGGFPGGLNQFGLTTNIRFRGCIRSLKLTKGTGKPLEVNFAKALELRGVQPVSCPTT

T3: human beta-DG fused to the human hIgG1 Fc antibody region (hbeta-DG-hFc) (human, UniProt Q14118 654-749, limits assumed)
T3 construct: not shown: human IgG1 Fc region
T3 sequence (looked up): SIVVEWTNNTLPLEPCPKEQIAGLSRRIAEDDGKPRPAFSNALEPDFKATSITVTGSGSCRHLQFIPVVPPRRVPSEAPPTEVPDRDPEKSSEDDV

T4: human laminin G-like 5 domain of laminin-2 (hLG-5) (human, UniProt P24043 2936-3122, soluble biotinylated protein (Avi tag))
T4 construct: The construct used for the crystal structure with C21 Fab is not described; the same entry is used; also called human LG-5; human LG5; not shown: N-terminal Avi and HPC4 tags
T4 sequence: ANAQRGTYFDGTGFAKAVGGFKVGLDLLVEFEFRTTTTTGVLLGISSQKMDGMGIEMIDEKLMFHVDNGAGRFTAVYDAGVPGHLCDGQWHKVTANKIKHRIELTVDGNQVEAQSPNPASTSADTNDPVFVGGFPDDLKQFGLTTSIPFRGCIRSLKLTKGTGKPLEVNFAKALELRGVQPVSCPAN

T5: human beta-dystroglycan extracellular domain (soluble) (human, UniProt Q14118 654-749)
T5 construct: extracellular domain; The expression construct of soluble human beta-DG is not described (only the mouse one); also called hBeta-DG; hbeta-DG
T5 sequence (looked up): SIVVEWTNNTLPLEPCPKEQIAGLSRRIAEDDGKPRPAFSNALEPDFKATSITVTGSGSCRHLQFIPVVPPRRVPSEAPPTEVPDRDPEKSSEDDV

T6: murine beta-dystroglycan extracellular domain (mbeta-DG ECD), HPC4 tagged (mouse, UniProt Q62165 652-746)
T6 construct: range 652-746; Made in E. coli as MBP fusion; MBP cleaved off with TEV protease; also called mbeta-DG-HPC4; murine beta-DG; not shown: C-terminal HPC4 tag
T6 sequence (looked up): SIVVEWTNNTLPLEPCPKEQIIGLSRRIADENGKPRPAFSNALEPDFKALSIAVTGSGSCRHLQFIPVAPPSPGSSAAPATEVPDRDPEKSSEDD


Columns and labels:
[1] = biological target: T1, human laminin G-like 4 and 5 domains of …; assay: SPR (Biacore) kinetics, antibody as ligand on the chip, hLG4/5 monomer in flow, fit 1:1 Binding
[2] = biological target: T2, murine laminin G-like 4 and 5 domains …; assay: SPR (Biacore) kinetics, antibody as ligand on the chip, mLG4/5 monomer in flow, fit 1:1 Binding
[3] = biological target: murine laminin G-like 5 domain of laminin-2 (mLG-5) (mouse) (UniProt Q60675); assay: SPR (Biacore) kinetics; mAb immobilized, mLG-5 in flow
[4] = biological target: T3, human beta-DG fused to the human hIgG1 …; assay: double deck sandwich ELISA: plate coated with human LG-4/5, then mAb, then hbeta-DG-hFc, HRP anti-hFc
Method: (§1) 96-well plates were coated with 50 ng human LG-4/5 and blocked with 5% fetal bovine serum in PBS. Each well was incubated with 1 μg of the generated bispecific antibodies (murine IgG backbone). After 2 hours, wells were washed with PBS and re-incubated with 16 ng to 1 μg per well of human beta-DG fused to the human hIgG1 Fc antibody region (hbeta-DG-hFc). After 2 hours, wells were washed with PBS, incubated with a HRP conjugated anti-hFc secondary antibody for 45 minutes, washed again with PBS, and developed for colorimetric measuring.
(§2) Colorimetric signals could be detected only when hLG-4/5 and hbeta-DG-hFc were both added in the assay (FIG. 7). No signal was detected when parental monoclonal antibodies were used or when hbeta-DG-hFc was omitted. Three bispecific antibodies (biAbs), T1T2, T5T6, and C5C6, had the anticipated signal indicating simultaneous binding to both targets. The parental anti-LG4/5 or anti-beta-DG mAbs, or biAbs without beta-DG-hFc in the 2nd step were all negative in this assay.

[5] = biological target: T4, human laminin G-like 5 domain of …; assay: SPR (Biacore) kinetics; mAb immobilized, hLG-5 in flow
[6] = biological target: T5, human beta-dystroglycan extracellular …; assay: sequential SPR (Biacore): antibody immobilised on a CM5 chip, human LG-4/5 and then human beta-DG flowed over
Method: Parental monoclonal antibodies (AS19, C3 and C21) and three bispecific antibodies (AS19×C3 and AS30×C3 in TBTI, and AS30×C3 in CODVIg) were each immobilized onto individual CM5 Series S Biacore chips (GE Healthcare). Human or murine LG-4/5, followed in sequence by human or murine beta-DG, was flown over each chip and binding was assessed.
Parental mAbs to LG-4/5 or beta-DG and biAbs of anti-LG4/5 and beta-DG were captured onto biacore chips, and then flowed with human LG4/5 and human beta-DG sequentially to determine their concurrent bindings to both antigens. […] In contrast, parental monoclonal antibodies were only able to bind to one target, either LG-4/5 (C3 and C21 in FIGS. 6A & 6B) or beta-DG (AS19 in FIGS. 6A & 6B).

[7] = biological target: T1, human laminin G-like 4 and 5 domains of …; assay: SPR (Biacore) kinetics, antibody as ligand on the chip, hLG4/5 monomer in flow, fit 1:1 Binding; remark: listed apart in the source
[8] = biological target: T2, murine laminin G-like 4 and 5 domains …; assay: SPR (Biacore) kinetics, antibody as ligand on the chip, mLG4/5 monomer in flow, fit 1:1 Binding; remark: listed apart in the source
[9] = biological target: T3, human beta-DG fused to the human hIgG1 …; assay: double deck sandwich ELISA: plate coated with human LG-4/5, then biAb, then hbeta-DG-hFc, HRP anti-hFc; a signal needs both bindings at once
Method: as §1, §2

[10] = biological target: T6, murine beta-dystroglycan extracellular …; assay: SPR (Biacore) kinetics; mAb immobilized, mBeta-DG in flow
[11] = biological target: T5, human beta-dystroglycan extracellular …; assay: SPR (Biacore) kinetics; mAb immobilized, hBeta-DG in flow

Row | Binder | Kd [3] | koff [3] | kon [3] | binding result [4] | Kd [5] | koff [5] | kon [5] | binding result [6] | also measured
1 | anti-laminin-2 antibody derived from hybridoma clone C21 (antibody, V domains shown, Hybridoma monoclonal antibody (detected with anti-mouse IgG); also called anti-laminin-2(C21)) VH: EVMLVESGGGLVKPGGSLKLSCAASGFTFSSYTMSWVRQTPEKRLEWVATISSGGDNTYYPDSVKGRFTISRDNAKNNLYLQMSSLRSEDTALYYCARFDYGSSLDCWGQGTTLTVSS VL: DIVLTQSPATLSVTPGDSVSLSCRASQSISNYLHWYQQKSHESPRLLIKYASQSISGIPSRFSGSGSGTDFTLSINSVETEDFGMYFCQQSKSWPRTFGGGTELEIK | 3.04 nM | 0.00253 s⁻¹ | 813000 M⁻¹ s⁻¹ | no binding (tested: 1000 ng/ml) | 2.8 nM | 0.00131 s⁻¹ | 467000 M⁻¹ s⁻¹ | no binding | Kd [1]: 2.8 nM; koff [1]: 0.00131 s⁻¹; kon [1]: 467000 M⁻¹ s⁻¹; Kd [2]: 3.04 nM; koff [2]: 0.00253 s⁻¹; kon [2]: 813000 M⁻¹ s⁻¹
2 | anti-laminin-2 antibody derived from hybridoma clone C3 (antibody, V domains shown, Hybridoma monoclonal antibody (detected with anti-mouse IgG); also called C03; anti-laminin-2(C3)) VH: DVMLVESGGDLVKPGGSLKLSCAASGFTFSSYTMSWVRQTPEKRLEWVASISSGGGNTYYPDSVKGRFTISRDNAKNNLYLQMSSLRSEDTALYYCARFDYGSSLDSWGQGTTLTVSS VL: DIVLTQSPATLSVTPGDSVSLSCRASQSISNNLHWYQQKSHESPRLLIKYASQSISGIPSRFSGSGSGTDFTLSINSVETEDFGMYFCQQSKNWPRTFGGGTKLEIK | 8.27 nM | 0.00429 s⁻¹ | 519000 M⁻¹ s⁻¹ | no binding (tested: 1000 ng/ml) | 2.66 nM | 0.0013 s⁻¹ | 488000 M⁻¹ s⁻¹ | no binding | koff [7]: 0.0013 s⁻¹; kon [7]: 488000 M⁻¹ s⁻¹; koff [8]: 0.00429 s⁻¹; kon [8]: 519000 M⁻¹ s⁻¹
3 | bispecific antibody T1T2: anti-beta-DG(AS19) x anti-laminin-2(C3), TBTI with (GGGGS)2 linker (bispecific antibody, also called AS19xC3 in TBTI; biAb (AS19xC3); not shown: IgG1 heavy chain constant region: murine IgG1 (GenBank AAA75163.1) or human IgG1 (Genbank Q569F4); murine IgG backbone i; kappa light chain constant region: murine kappa chain (Genbank BAB33404) or human kappa chain (Genbank Q502W4)) heavy: QVQLQQSGPELVKPGASVKMSCKASGFTFTDSVISWVKQRTGQGLEWIGEIYPGSGSIYYNEKFKGKATLTADKSSNTAYMQLRSLTSEDSAVYFCAMRRSYWGQGTLVTVSAGGGGSGGGGSDVMLVESGGDLVKPGGSLKLSCAASGFTFSSYTMSWVRQTPEKRLEWVASISSGGGNTYYPDSVKGRFTISRDNAKNNLYLQMSSLRSEDTALYYCARFDYGSSLDSWGQGTTLTVSS light: DVLMTQTPLSLPVSLGDQASISCRSSQSIVHSNGNTYLEWYLQKPGQSPKLLIYKVSNRFSGVPDRFSGSGSGTDFTLKISRVEAEDLGVYYCFQGSHVPLTFGAGTKLELKGGGGSGGGGSDIVLTQSPATLSVTPGDSVSLSCRASQSISNNLHWYQQKSHESPRLLIKYASQSISGIPSRFSGSGSGTDFTLSINSVETEDFGMYFCQQSKNWPRTFGGGTKLEIK | – | – | – | – | – | – | – | binds | binding result [9]: binds
4 | anti-beta-DG antibody derived from phage display clone B04 (antibody, V domains shown, Phage display clone) VH: QVQLQQSGGGLVQPGGSLRLSCAASGFTFSSYAMSWVRQAPGKGLEWVSAISGSGGSTYYADSVKGRFTVSRDNSKNTLYLQMNSLRAEDTAVYYCARLGYCSSTSCYLSAFDIWGQGTMVTVSS VL: EIVLTQSPSTLSASVGDRVTITCRASQSISSWLAWYQQKPGKAPKLLIYDASSLESGVPSRFSGSGSGTEFTLTISSLQPDDFATYYCQQYNSYPLTFGGGTKVEIK | – | – | – | – | – | – | – | – | Kd [10]: 25.7 nM; koff [10]: 0.0016 s⁻¹; kon [10]: 62000 M⁻¹ s⁻¹; koff [11]: 0.0016 s⁻¹; kon [11]: 62000 M⁻¹ s⁻¹
